From the supplement of paper PMC10266784

B1: library; numbered along this chain (parent)
chain: MAAAAAAAAEQQSSNGPVKKSMREKAVERRSVNKEHNSNFKAGYIPIDEDRLHKTGLRGRKGNLAICVIILLFILAVINLIITLVIWAVIRIGPNGCDSMEFHESGLLRFKQVSDMGVIHPLYKSTVGGRRNENLVITGNNQPIVFQQGTTKLSVENNKTSITSDIGMQFFDPRTQNILFSTDYETHEFHLPSGVKSLNVQKASTERITSNATSDLNIKVDGRAIVRGNEGVFIMGKTIEFHMGGNMELKAENSIILNGSVMVSTTRLPSSSSGDQLGSGDWVRYKLCMCADGTLFKVQVTSQNMGCQISDNPCGNTH

Variants of: B1
Experiment: SGCB cell-surface expression functional score (HA stain, bin4 vs bin1, normalised to synonymous) (log10 ratio); higher = more cell-surface SGCB (functional)
In short: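 Human beta-sarcoglycan, tagged with HA and fused to YFP, was built into codon-saturation libraries and delivered by lentivirus at MOI <0.1 into HEK293 cells that stably express alpha-, gamma- and delta-sarcoglycan. After 72 hours, YFP-positive cells were sorted and grown for 5–7 days, then stained on ice with Alexa Fluor 647 anti-HA, fixed, sorted into four 5% intensity bins and amplicon-sequenced. Each variant's functional score is the log ratio of its frequency in the highest bin to that in the lowest bin, taken as the median across codons and transductions. Transductions were done in duplicate, and synonymous variants were scaled per section to mean 0, SD 0.5.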

SGCB cell-surface expression functional score (log10), by site and new letter:
S210: W -1.35, D -0.42, G -0.16, Q -1.03, R -1.31, L -1.26, I -0.9, K -1.43, C -0.17, Y -2.28, F -0.9, T -0.61, A 0.29, N -1.62, P -1.92, M -1.94, H -0.47, E -1.75, V -1.36
R223: K 0.86, W 0, L 0.34, S 0.18, P 0.58, M 0.82, Q 0.48, E 0.43, V -0.13, H 0.2, Y 0.77, G 0.12, T 0.4, F -0.62, I 0.02, A 0.72, C 0.4, N 0.66, D 0.48
I225: P -1.25, H 0.53, A 0.41, R 0.53, Y 1.24, L 0.83, K 0.58, V 0.48, M 0.37, E 1.24, G 0.01, Q 0.49, S 0.63, W 0.02, F 0.71, N 0.09, C 0.31, D 0.7, T 0.51
N211: E 0.12, Q -0.03, K 0.09, W -3.13, H -0.34, P -0.12, S -0.02, A -0.33, I -0.69, D -0.68, T -0.4, R -0.82, L -0.58, F -0.28, M 0.07, Y 0, V -0.91, C -1.44, G -3.64
L216: I -0.71, A -1.97, H -2.1, G -1.5, E -1.92, C -2.34, D -2.69, T -1.02, V -2.64, P -1.25, Q -0.15, Y -1.59, W -0.99, M 0.99, S -1.57, N -1.72, K -0.59, R -1.93, F -0.42
V226: A 0.3, K -1.06, L 0.56, F 0.29, R -1.54, M 0.21, W -1.37, G -0.26, N -0.64, C 0.33, I 0.04, D -1.82, H -1.36, E 0.47, Y -0.87, Q -0.68, T 0.44, S 0.01, P -0.81
A224: V 0.53, E -1.01, W -1.5, C 0.31, K -2.05, I 1, L 1.04, P -1.81, G -0.16, T 0.39, M 0.59, R -1.54, D -0.97, Y -0.45, F 0.35, N -0.26, S 0.3, H -0.71, Q -0.44
D221: V 0.59, I 0.45, E 0.01, M 0.53, A 0.18, N -0.22, S 0.59, T 0.96, R 0.19, G 0.35, Y 0.42, K 0.13, C -0.33, W 0.8, L 0.62, H 0.75, Q 0.74, P 0.1, F 1
A212: N -0.89, L -0.95, P -0.25, Y 0.86, Q 0.72, M 0.16, C -0.61, E 0.91, V -0.06, H -0.76, K -1.05, R -1.47, S 0.29, W -0.44, F -0.4, G 0.11, T 0.02, D 0.56, I 0.23
V220: W -1.67, R -1.12, E -0.86, A 0.7, N 0.09, P 0.3, F -0.09, I 0.43, H 0.43, D -0.38, C 0.09, L 0.84, S 0.45, T 0.63, M 0.77, K -0.09, G 0.34, Y -0.43, Q -0.31
T213: A -0.44, D -0.81, P -1.5, N 0.03, E 0.86, V -1.02, Y -0.24, G 0.65, R 0.18, K 0.23, Q 0.13, L -0.5, M 0.76, I 0.5, F -0.31, C -0.94, S 0.08, H -0.04
I218: P -0.63, C -0.48, T -0.49, S -1.26, F 0.87, D -1.45, M 0.26, A -0.08, V 0.46, H -2.33, L 0.56, W -0.149, N -1.03, Q -2.02, G -1.15, R -1.49, Y -1.39, E -1.24, K -1.78
K219: T 0.6, R 0.05, I 0.23, D 0.29, S 0.32, A 0.76, N -0.17, P -0.21, M 0.67, E -0.03, Q 0.3, F 0.64, V -0.18, H 0.53, G -0.33, Y -0.13, L 0.3, W -0.31, C 0.59
S214: W -1.07, R -0.31, M -0.57, I -0.69, Y -1.74, G -0.32, K -0.46, Q -0.1, N -0.1, C -0.08, T -0.12, F -1.55, V -0.18, P -1.11, A 0.25, H -0.9, L -1.06
T209: Y -0.71
G222: P -1.42, D -0.04, E 0.65, Q 0.85, C 0.58, F 0.36, M 0.55, V -0.07, I -0.41, H 1.21, L 0.26, Y 0.21, R -0.06, W 0.49, S 0.06, N 1.22, K 0.81, A 0.63, T 0.6
N217: K 0.3, W -1.28, V 0.65, I 0.1, F 1.13, Y 0.59, C -0.04, H 0, S 0.54, D 0.2, E 0.9, L 0.37, R 0.7, T 0.16, Q 0.77, A 0.9, M 0.27, G 0.5, P -1.08
D215: L -1.51, A -0.72, S -0.25, V -0.56, E 0.16, H -0.39, C -1.31, Y -0.46, M -1, I -0.99, F -1.47, T -0.88, N 0.41, P -0.55, G -0.26, Q -1.03, K 0, R -0.63
R227: H 0.55, N -0.13, E 1.04, D 0.42, C 0.03, L 0.68, A 0.72, P -1.23, G 0.48, F -0.49, Q 0.55, K 1.05, I -0.01, M 1.08
